This data set concerns the molecule itself. As to the kind of experiment: NMR structure; solution NMR at 298 K; 1 mM protein in 20 mM sodium phosphate pH 6.8, 20 mM NaCl; intermolecular NOEs from a 13C/15N-filtered NOESY on a 50% labelled / 50% unlabelled sample, used as distance restraints with an upper limit of 5 Å.

B1: Araneus ventricosus minor ampullate spidroin (MiSp) C-terminal domain, truncated construct (residues 31-150 of the 150-residue C-terminal part) (domain or fragment)
chain: VTSGGYGYGTSAAAGAGVAAGSYAGAVNRLSSAEAASRVSSNIAAIASGGASALPSVISNIYSGVVASGVSSNEALIQALLELLSALVHVLSSASIGNVSSVGVDSTLNVVQDSVGQYVG
modifications: uniformly 13C/15N-labelled (a mixed sample of 50% 13C/15N-labelled and 50% unlabelled protein was used for the intermolecular NOEs)
notes: C-terminal domain of minor ampullate spidroin (MiSp), Araneus ventricosus; residues 31-150 of the printed 150-residue construct; PDB 2MFZ would settle this; also called A. ventricosus MiSp CT; source: E. coli BL21 (DE3), minimal medium, purified (Ni-NTA, thrombin cleavage, Ni-NTA); not shown: His tag-Thioredoxin-His tag, N-terminal, cleaved
Consider B1, for which the binding result is given as “binds”.

These data come from PMC4122339, “Carbonic Anhydrase Generates CO2 and H^+ That Drive Spider Silk Formation Via Opposite Effects on the Terminal Domains” (PLoS Biology, 2014).
